Data from patent US20250066499A1 (SUNSHINE GUOJIAN PHARMACEUTICAL SHANGHAI, published 2025).

Key:
Experiment in all cases: ELISA; decline multiple of EC50 against CD73-ND
[1] = molecular target: T1, CD73-ND-L181A (human, UniProt P21589 27-317)
T1 construct: Alanine mutant of CD73-ND
T1 sequence: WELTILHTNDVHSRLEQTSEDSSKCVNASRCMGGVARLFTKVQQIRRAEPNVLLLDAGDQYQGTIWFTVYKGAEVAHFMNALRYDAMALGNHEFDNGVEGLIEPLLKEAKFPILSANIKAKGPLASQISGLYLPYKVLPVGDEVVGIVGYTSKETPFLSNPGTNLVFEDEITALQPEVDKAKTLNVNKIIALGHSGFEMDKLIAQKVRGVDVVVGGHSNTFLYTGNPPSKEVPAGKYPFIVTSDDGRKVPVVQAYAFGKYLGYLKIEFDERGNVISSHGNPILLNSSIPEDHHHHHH
Protocol: (§1) The ELISA plates were coated with SA protein diluted to 1.5 μg/mL in coating buffer (50 mM carbonate coating buffer, pH 9.6) and incubated overnight at 4° C. The supernatant was discarded, and the plates were washed three times with PBST. Then, 5% skimmed milk powder prepared with PBS was added for blocking and the plates were incubated for 2 h at 37° C. After washing the plates once with PBST, CD73-biotin protein (prepared by biotinylating CD73-His protein according to the EZ-Link NHS-Biotin Reagent instructions) was diluted to 0.5 μg/mL and added at 100 μL/well for incubation at room temperature for 1 h. The plates were washed three times with PBST, and the prepared murine-derived monoclonal antibodies against human CD73 were serially diluted with 1% BSA buffer prepared with PBST and added to the ELISA plates at 100 μl/well. The plates were incubated at 37° C. for 1 h. After washing the plates three times with PBST, HRP-labeled goat anti-mouse IgG secondary antibody was added and the plates were incubated for 30 min at 37° C. After washing the plates three times with PBST, the residual droplets were patted dry on absorbent paper as much as possible. Then, 100 μl of TMB color developing solution was added to each well, and the plates were incubated in the dark at room temperature for 5 min for color development. Subsequently, 50 μl of 2M H₂SO₄ stop solution was added to each well to terminate the substrate reaction. The OD values were read at 450 nm using a multimode microplate reader to analyze the binding ability of the tested antibodies to the target antigen human CD73-His.
(§2) Referring to the experimental method in Example 3, the affinity of 48A11-HuV33 for various mutant proteins of CD73-ND was determined. The SA protein was diluted to 1 μg/mL for coating the ELISA plates, and the biotinylated CD73 protein (CD73-biotin) was used at a concentration of 0.1 μg/mL.

[2] = molecular target: T2, CD73-ND-V144A (human, UniProt P21589 27-317)
T2 construct: Alanine mutant of CD73-ND
T2 sequence: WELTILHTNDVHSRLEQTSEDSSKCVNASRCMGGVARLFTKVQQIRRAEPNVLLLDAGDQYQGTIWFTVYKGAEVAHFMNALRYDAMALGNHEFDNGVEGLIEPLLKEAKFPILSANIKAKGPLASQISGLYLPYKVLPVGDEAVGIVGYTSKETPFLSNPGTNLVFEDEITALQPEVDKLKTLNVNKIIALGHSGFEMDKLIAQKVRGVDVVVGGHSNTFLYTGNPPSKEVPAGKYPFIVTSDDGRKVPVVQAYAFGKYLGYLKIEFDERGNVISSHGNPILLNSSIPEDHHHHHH
Protocol: as §1, §2

[3] = molecular target: T3, CD73-ND-K180A (human, UniProt P21589 27-317)
T3 construct: Alanine mutant of CD73-ND
T3 sequence: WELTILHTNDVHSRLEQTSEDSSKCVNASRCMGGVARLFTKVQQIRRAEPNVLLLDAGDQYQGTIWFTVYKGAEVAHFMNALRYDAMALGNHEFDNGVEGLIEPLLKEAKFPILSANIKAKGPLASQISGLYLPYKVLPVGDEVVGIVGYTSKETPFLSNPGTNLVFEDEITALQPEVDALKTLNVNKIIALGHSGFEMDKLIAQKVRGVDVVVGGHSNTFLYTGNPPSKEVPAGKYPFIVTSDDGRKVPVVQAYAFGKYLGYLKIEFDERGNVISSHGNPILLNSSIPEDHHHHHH
Protocol: as §1, §2

[4] = molecular target: T4, CD73-ND-T183A (human, UniProt P21589 27-317)
T4 construct: Alanine mutant of CD73-ND
T4 sequence: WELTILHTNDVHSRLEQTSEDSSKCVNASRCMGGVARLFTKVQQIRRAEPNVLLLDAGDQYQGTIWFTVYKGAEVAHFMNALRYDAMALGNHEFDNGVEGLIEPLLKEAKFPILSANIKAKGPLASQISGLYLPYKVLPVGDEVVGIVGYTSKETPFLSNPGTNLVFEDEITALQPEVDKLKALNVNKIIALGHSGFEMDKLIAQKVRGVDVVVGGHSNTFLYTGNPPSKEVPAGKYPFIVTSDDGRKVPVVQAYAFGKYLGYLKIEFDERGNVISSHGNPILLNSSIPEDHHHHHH
Protocol: as §1, §2

[5] = molecular target: T5, CD73-ND-N185A (human, UniProt P21589 27-317)
T5 construct: Alanine mutant of CD73-ND
T5 sequence: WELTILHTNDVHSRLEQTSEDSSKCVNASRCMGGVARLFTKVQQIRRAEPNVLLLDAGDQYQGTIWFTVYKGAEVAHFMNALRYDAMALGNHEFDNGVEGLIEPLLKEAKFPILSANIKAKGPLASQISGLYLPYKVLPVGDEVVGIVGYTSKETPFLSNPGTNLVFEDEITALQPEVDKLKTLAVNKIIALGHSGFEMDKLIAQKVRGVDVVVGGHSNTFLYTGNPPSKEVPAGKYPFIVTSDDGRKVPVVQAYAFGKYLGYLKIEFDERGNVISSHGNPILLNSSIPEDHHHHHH
Protocol: as §1, §2

[6] = molecular target: T6, CD73-ND-his (human, UniProt P21589 27-317)
T6 construct: Biotinylated and captured on streptavidin in the ELISA
T6 sequence: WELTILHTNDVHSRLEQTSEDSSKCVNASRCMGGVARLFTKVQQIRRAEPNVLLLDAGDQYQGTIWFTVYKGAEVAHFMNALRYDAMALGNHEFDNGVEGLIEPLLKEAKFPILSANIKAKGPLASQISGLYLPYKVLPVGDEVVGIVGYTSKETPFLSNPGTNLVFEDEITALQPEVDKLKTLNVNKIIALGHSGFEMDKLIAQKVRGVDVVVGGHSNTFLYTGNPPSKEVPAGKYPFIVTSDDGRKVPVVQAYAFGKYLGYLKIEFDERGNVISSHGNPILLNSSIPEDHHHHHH
Protocol: as §1, §2

B1: 48A11-HuV33 (antibody, human IgG4, V domains shown)
VH: QVQLVQSGAEVKKPGASVKVSCKASGYTFTSYWMHWVRQAPGQGLEWIGEINPSIGRTNYNEKFKSRVTLTRDTSTSTAYMELSSLRSEDTAVYYCARRVYGTMDYWGQGTLVTVSS
VL: DIQMTQSPSSLSASVGDRVTITCKASQDINSYLSWFQQKPGKSPKLLIYRANIWVDGVPSRFSGSGSGQDYTFTISSLQPEDIATYYCLQYDELYTFGQGTKVEIK
notes: Humanized
Ratio(EC50) [1]: 1.9 fold
Ratio(EC50) [2]: 2.5 fold
Ratio(EC50) [3]: 2.7 fold
Ratio(EC50) [4]: 1.4 fold
Ratio(EC50) [5]: 1.6 fold
Ratio(EC50) [6]: 1 fold
